Assays:
[1] = test system: Biotinylated histone H3:21-44 peptide containing unmethylated K27
[2] = test system: Biotinylated histone H3:21-44 peptide containing monomethylated K27
[3] = test system: Biotinylated histone H3:21-44 peptide containing dimethylated K27
[4] = test system: Chicken erythrocyte oligonucleosomes

Row | Substance | K (K1/2, concentration of peptide resulting in half-maximal velocity) [1] [nM] | K (K1/2, concentration of peptide resulting in half-maximal velocity) [2] [nM] | K (K1/2, concentration of peptide resulting in half-maximal velocity) [3] [nM] | K (Km for nucleosome) [4] [µM]
1 | Recombinant five-component PRC2 complex containing Y641F mutant EZH2 | 240 | 404 | 191 | 0.176
2 | Recombinant five-component PRC2 complex containing Y641S mutant EZH2 |  | 249 | 136 | 0.137
3 | Recombinant five-component PRC2 complex containing Y641N mutant EZH2 |  | 280 | 157 | 0.191
4 | Recombinant five-component PRC2 complex containing Y641H mutant EZH2 |  | 319 | 148 | 0.14

Reference: patent US8895245
